Test results from the supplement of paper PMC9112550, “Optimization of the antimicrobial peptide Bac7 by deep mutational scanning” (BMC Biology, 2022).
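Further: peptides expressed intracellularly from a pBAD plasmid library in pooled LB shake-flask culture, induced with 0.3% L-arabinose, DNA abundance read by NGS, three biological replicates, DESeq2 with apeglm shrinkage.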

What follows are sequences tested on Escherichia coli TOP10 (assay: shrunken log2 fold change of peptide-encoding DNA abundance (4.5 h post-induction vs induction); higher = less antimicrobial activity (less host growth inhibition)). Conditions: time post-induction: 4.5 h; library: site-saturation at positions 5, 18, 19, 20.
With RRIRTRPPRLPRPRPRPGLPPRP the “shrunken log2 fold change” value was 0.189.
With RRIRTRPPRLPRPRPRPGNAPRP the “shrunken log2 fold change” value was -0.0554.
With RRIRTRPPRLPRPRPRPGNFPRP the “shrunken log2 fold change” value was -0.0548.
RRIRTRPPRLPRPRPRPGPHPRP was tested, and the “shrunken log2 fold change” value was 0.124.
For RRIRTRPPRLPRPRPRPGREPRP, the “shrunken log2 fold change” value was 0.0772.
For RRIRTRPPRLPRPRPRPGSIPRP, the “shrunken log2 fold change” value was -0.025.
For RRIRTRPPRLPRPRPRPGVDPRP, the “shrunken log2 fold change” value was 0.0151.
RRIRTRPPRLPRPRPRPGWPPRP was tested, and the “shrunken log2 fold change” value was 0.576.
With RRIRTRPPRLPRPRPRPGWSPRP the “shrunken log2 fold change” value was 0.354.
In the case of RRIRTRPPRLPRPRPRPGWVPRP, the “shrunken log2 fold change” value is reported as -0.0236.
RRIRTRPPRLPRPRPRPHACPRP was tested, and the “shrunken log2 fold change” value was 0.158.
With RRIRTRPPRLPRPRPRPHCTPRP the “shrunken log2 fold change” value was -0.298.
RRIRTRPPRLPRPRPRPHEEPRP was tested, and the “shrunken log2 fold change” value was 0.0127.
In the case of RRIRTRPPRLPRPRPRPHEYPRP, the “shrunken log2 fold change” value is reported as -0.17.
RRIRTRPPRLPRPRPRPHFNPRP was tested, and the “shrunken log2 fold change” value was -0.556.
With RRIRTRPPRLPRPRPRPHFRPRP the “shrunken log2 fold change” value was -0.284.
With RRIRTRPPRLPRPRPRPHKAPRP the “shrunken log2 fold change” value was -0.0306.
In the case of RRIRTRPPRLPRPRPRPHKYPRP, the “shrunken log2 fold change” value is reported as -0.295.
For RRIRTRPPRLPRPRPRPHLIPRP, the “shrunken log2 fold change” value was 2.85.
RRIRTRPPRLPRPRPRPHMPPRP was tested, and the “shrunken log2 fold change” value was -0.422.
RRIRTRPPRLPRPRPRPHMQPRP was tested, and the “shrunken log2 fold change” value was -0.249.
In the case of RRIRTRPPRLPRPRPRPHNLPRP, the “shrunken log2 fold change” value is reported as -0.274.
For RRIRTRPPRLPRPRPRPHNSPRP, the “shrunken log2 fold change” value was -1.22.
For RRIRTRPPRLPRPRPRPHQLPRP, the “shrunken log2 fold change” value was -0.313.
RRIRTRPPRLPRPRPRPHRIPRP was tested, and the “shrunken log2 fold change” value was -0.052.
RRIRTRPPRLPRPRPRPHSYPRP was tested, and the “shrunken log2 fold change” value was -1.23.
In the case of RRIRTRPPRLPRPRPRPHTAPRP, the “shrunken log2 fold change” value is reported as -0.0446.
RRIRTRPPRLPRPRPRPHWRPRP was tested, and the “shrunken log2 fold change” value was 0.027.
With RRIRTRPPRLPRPRPRPIAHPRP the “shrunken log2 fold change” value was 0.00363.
In the case of RRIRTRPPRLPRPRPRPIAMPRP, the “shrunken log2 fold change” value is reported as -0.387.
For RRIRTRPPRLPRPRPRPICCPRP, the “shrunken log2 fold change” value was 0.0718.
In the case of RRIRTRPPRLPRPRPRPICSPRP, the “shrunken log2 fold change” value is reported as -0.0969.
In the case of RRIRTRPPRLPRPRPRPIEEPRP, the “shrunken log2 fold change” value is reported as 0.0678.
For RRIRTRPPRLPRPRPRPIFHPRP, the “shrunken log2 fold change” value was -0.204.
With RRIRTRPPRLPRPRPRPIFKPRP the “shrunken log2 fold change” value was -0.128.
With RRIRTRPPRLPRPRPRPIGDPRP the “shrunken log2 fold change” value was -0.293.
RRIRTRPPRLPRPRPRPIGEPRP was tested, and the “shrunken log2 fold change” value was -0.195.
For RRIRTRPPRLPRPRPRPIIEPRP, the “shrunken log2 fold change” value was -0.565.
RRIRTRPPRLPRPRPRPILCPRP was tested, and the “shrunken log2 fold change” value was -0.0876.
With RRIRTRPPRLPRPRPRPILGPRP the “shrunken log2 fold change” value was 0.0438.
In the case of RRIRTRPPRLPRPRPRPILYPRP, the “shrunken log2 fold change” value is reported as -0.275.
In the case of RRIRTRPPRLPRPRPRPINCPRP, the “shrunken log2 fold change” value is reported as 0.00543.
In the case of RRIRTRPPRLPRPRPRPISDPRP, the “shrunken log2 fold change” value is reported as -0.0355.
RRIRTRPPRLPRPRPRPITRPRP was tested, and the “shrunken log2 fold change” value was -0.0822.
For RRIRTRPPRLPRPRPRPITTPRP, the “shrunken log2 fold change” value was -0.438.
RRIRTRPPRLPRPRPRPIVAPRP was tested, and the “shrunken log2 fold change” value was 2.95.
With RRIRTRPPRLPRPRPRPIVKPRP the “shrunken log2 fold change” value was -0.144.
In the case of RRIRTRPPRLPRPRPRPIYLPRP, the “shrunken log2 fold change” value is reported as -0.224.
For RRIRTRPPRLPRPRPRPIYPPRP, the “shrunken log2 fold change” value was -0.243.
With RRIRTRPPRLPRPRPRPKADPRP the “shrunken log2 fold change” value was -0.0127.
RRIRTRPPRLPRPRPRPKAEPRP was tested, and the “shrunken log2 fold change” value was -0.000916.
For RRIRTRPPRLPRPRPRPKAIPRP, the “shrunken log2 fold change” value was 0.00211.
RRIRTRPPRLPRPRPRPKAPPRP was tested, and the “shrunken log2 fold change” value was 0.317.
RRIRTRPPRLPRPRPRPKCIPRP was tested, and the “shrunken log2 fold change” value was -0.292.
For RRIRTRPPRLPRPRPRPKDPPRP, the “shrunken log2 fold change” value was 0.0667.
In the case of RRIRTRPPRLPRPRPRPKDSPRP, the “shrunken log2 fold change” value is reported as 0.0052.
For RRIRTRPPRLPRPRPRPKDTPRP, the “shrunken log2 fold change” value was -0.076.
In the case of RRIRTRPPRLPRPRPRPKEKPRP, the “shrunken log2 fold change” value is reported as 0.0414.
RRIRTRPPRLPRPRPRPKFHPRP was tested, and the “shrunken log2 fold change” value was -0.327.
For RRIRTRPPRLPRPRPRPKGDPRP, the “shrunken log2 fold change” value was 0.00199.
With RRIRTRPPRLPRPRPRPKHSPRP the “shrunken log2 fold change” value was -0.416.
For RRIRTRPPRLPRPRPRPKIHPRP, the “shrunken log2 fold change” value was -0.427.
For RRIRTRPPRLPRPRPRPKKFPRP, the “shrunken log2 fold change” value was -0.403.
RRIRTRPPRLPRPRPRPKKIPRP was tested, and the “shrunken log2 fold change” value was -0.437.
For RRIRTRPPRLPRPRPRPKMKPRP, the “shrunken log2 fold change” value was -0.554.
In the case of RRIRTRPPRLPRPRPRPKNEPRP, the “shrunken log2 fold change” value is reported as 0.715.
With RRIRTRPPRLPRPRPRPKNRPRP the “shrunken log2 fold change” value was -0.0821.
RRIRTRPPRLPRPRPRPKQAPRP was tested, and the “shrunken log2 fold change” value was 0.0749.
For RRIRTRPPRLPRPRPRPKSFPRP, the “shrunken log2 fold change” value was 0.0134.
For RRIRTRPPRLPRPRPRPKSPPRP, the “shrunken log2 fold change” value was -0.0758.
With RRIRTRPPRLPRPRPRPKTRPRP the “shrunken log2 fold change” value was 0.221.
In the case of RRIRTRPPRLPRPRPRPKTSPRP, the “shrunken log2 fold change” value is reported as -0.0907.
RRIRTRPPRLPRPRPRPKVRPRP was tested, and the “shrunken log2 fold change” value was 0.0294.
RRIRTRPPRLPRPRPRPKVWPRP was tested, and the “shrunken log2 fold change” value was 0.325.
In the case of RRIRTRPPRLPRPRPRPKVYPRP, the “shrunken log2 fold change” value is reported as 0.0324.
In the case of RRIRTRPPRLPRPRPRPLADPRP, the “shrunken log2 fold change” value is reported as 0.125.
For RRIRTRPPRLPRPRPRPLALPRP, the “shrunken log2 fold change” value was -0.0853.
For RRIRTRPPRLPRPRPRPLAMPRP, the “shrunken log2 fold change” value was 0.128.
With RRIRTRPPRLPRPRPRPLDRPRP the “shrunken log2 fold change” value was 0.0153.
For RRIRTRPPRLPRPRPRPLEKPRP, the “shrunken log2 fold change” value was 0.419.
RRIRTRPPRLPRPRPRPLFMPRP was tested, and the “shrunken log2 fold change” value was -0.737.
RRIRTRPPRLPRPRPRPLFWPRP was tested, and the “shrunken log2 fold change” value was 0.134.
RRIRTRPPRLPRPRPRPLGGPRP was tested, and the “shrunken log2 fold change” value was 0.137.
RRIRTRPPRLPRPRPRPLGKPRP was tested, and the “shrunken log2 fold change” value was 0.0663.
RRIRTRPPRLPRPRPRPLGNPRP was tested, and the “shrunken log2 fold change” value was -0.159.
For RRIRTRPPRLPRPRPRPLGPPRP, the “shrunken log2 fold change” value was 0.114.
In the case of RRIRTRPPRLPRPRPRPLILPRP, the “shrunken log2 fold change” value is reported as -0.839.
For RRIRTRPPRLPRPRPRPLKDPRP, the “shrunken log2 fold change” value was 0.0122.
With RRIRTRPPRLPRPRPRPLKLPRP the “shrunken log2 fold change” value was -0.251.
In the case of RRIRTRPPRLPRPRPRPLMAPRP, the “shrunken log2 fold change” value is reported as -0.031.
In the case of RRIRTRPPRLPRPRPRPLMPPRP, the “shrunken log2 fold change” value is reported as 0.0315.
With RRIRTRPPRLPRPRPRPLMQPRP the “shrunken log2 fold change” value was 0.19.
In the case of RRIRTRPPRLPRPRPRPLNCPRP, the “shrunken log2 fold change” value is reported as -0.405.
For RRIRTRPPRLPRPRPRPLNMPRP, the “shrunken log2 fold change” value was 0.00244.
For RRIRTRPPRLPRPRPRPLPNPRP, the “shrunken log2 fold change” value was 0.203.
For RRIRTRPPRLPRPRPRPLPPPRP, the “shrunken log2 fold change” value was 0.333.
For RRIRTRPPRLPRPRPRPLPQPRP, the “shrunken log2 fold change” value was 0.165.
RRIRTRPPRLPRPRPRPLPTPRP was tested, and the “shrunken log2 fold change” value was 0.368.
With RRIRTRPPRLPRPRPRPLQMPRP the “shrunken log2 fold change” value was 0.2.
RRIRTRPPRLPRPRPRPLRQPRP was tested, and the “shrunken log2 fold change” value was 0.456.
For RRIRTRPPRLPRPRPRPLVGPRP, the “shrunken log2 fold change” value was 0.131.
In the case of RRIRTRPPRLPRPRPRPLVIPRP, the “shrunken log2 fold change” value is reported as -0.44.
With RRIRTRPPRLPRPRPRPLVLPRP the “shrunken log2 fold change” value was -0.162.
RRIRTRPPRLPRPRPRPLVVPRP was tested, and the “shrunken log2 fold change” value was 0.193.
With RRIRTRPPRLPRPRPRPLYQPRP the “shrunken log2 fold change” value was -0.375.
RRIRTRPPRLPRPRPRPMALPRP was tested, and the “shrunken log2 fold change” value was -0.0542.
RRIRTRPPRLPRPRPRPMAMPRP was tested, and the “shrunken log2 fold change” value was 0.0345.
In the case of RRIRTRPPRLPRPRPRPMDIPRP, the “shrunken log2 fold change” value is reported as -0.00738.
RRIRTRPPRLPRPRPRPMGKPRP was tested, and the “shrunken log2 fold change” value was 0.0179.
